Results: article PMC11996676

Biological target: aPKCι kinase domain (residues 248–596), fully primed (human), P41743
Test: fluorescence polarisation; fluorescence anisotropy; Llgl1 P-site peptide and aPKCι kinase domain (2P, pT412 and pT564); apparent Kd

Sequence of aPKCι kinase domain (residues 248–596), fully primed (human), P41743 (P41743 248-596): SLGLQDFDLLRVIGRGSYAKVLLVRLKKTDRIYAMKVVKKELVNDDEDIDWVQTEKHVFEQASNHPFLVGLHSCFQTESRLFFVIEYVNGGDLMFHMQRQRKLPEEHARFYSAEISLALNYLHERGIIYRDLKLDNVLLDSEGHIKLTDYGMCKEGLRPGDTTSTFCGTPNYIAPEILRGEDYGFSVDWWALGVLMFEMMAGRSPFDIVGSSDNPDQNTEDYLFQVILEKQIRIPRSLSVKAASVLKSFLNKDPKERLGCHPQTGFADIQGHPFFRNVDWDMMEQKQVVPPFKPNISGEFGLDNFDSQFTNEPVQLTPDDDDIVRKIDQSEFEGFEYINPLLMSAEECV

Kd: 48 nM
Binder: LAMEGPLSRVKSLKKSLRQSFRRIRKSRV (modifications not checked) [Llgl1 P-site peptide]
